Source: article PMC11998487 (2025)

Target: T1, EV71-VP1-His (enterovirus 71 (EV71), UniProt Q66478 566-862, RED-tris-NTA dye on the His tag (in the MST only))
T1 chain: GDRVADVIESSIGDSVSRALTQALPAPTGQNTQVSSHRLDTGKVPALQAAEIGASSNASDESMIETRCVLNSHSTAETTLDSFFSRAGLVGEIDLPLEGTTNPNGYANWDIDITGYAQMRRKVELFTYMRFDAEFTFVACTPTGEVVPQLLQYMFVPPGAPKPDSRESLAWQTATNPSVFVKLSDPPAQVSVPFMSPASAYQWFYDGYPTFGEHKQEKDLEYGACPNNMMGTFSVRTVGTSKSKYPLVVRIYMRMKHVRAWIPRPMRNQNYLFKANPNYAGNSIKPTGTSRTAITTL
Assay: MST

B1: ZYG11B 1–58-GST (domain or fragment)
chain: MPEDQAGAAMEEASPYSLLDICLNFLTTHLEKFCSARQDGTLCLQEPGVFPQEVADRL
Kd: 5.55 µM
